From patent US20110135573A1, “METALLOPROTEINASE 9 AND METALLOPROTEINASE 2 BINDING PROTEINS” (DYAX CORP., priority 2009, published 2011)

Legend:
Colo205 tumor sections = test: Film in situ zymography (FIZ) on frozen tumor sections; format: cell-based, human; details: 500 nM; 37° C. overnight
Method: (§1) PBS-control treated tumors were screened with M0237-D02 for gelatinase expression using the FIZ approach. The tumors tested were Colo205 and MCF-7. Briefly, frozen slides of tumpor sections were dried at room temperature and 200 μl of in situ Zymo buffer (TCNB)+20 μg/ml of gelatin quenched substrate from molecular probes was added. The slides were incubate at 37° C. overnight in the presence of M0237-D02 at 500 nM or GM6001 used as a positive control at 100 μM. The substrate was washed in MilliQ (3 times) and the mounted slides were treated with anti-Fade+Dapi mounting medium.

MCF-7 tumor sections = test: as above; format: cell-based, human; details: 500 nM; 37° C. overnight
Method: as §1

human pro-MMP-9 = molecular target: T1, human pro-MMP-9 (Homo sapiens, UniProt P14780); test: Biacore 3000 binding to antibody-coated CM5 chip; details: Direct capture, 25° C.
T1 construct: the human pro-MMP-9 (R&D, 911-MP); purchased R&D Systems 911-MP
T1 sequence (P14780 20-707 limits assumed): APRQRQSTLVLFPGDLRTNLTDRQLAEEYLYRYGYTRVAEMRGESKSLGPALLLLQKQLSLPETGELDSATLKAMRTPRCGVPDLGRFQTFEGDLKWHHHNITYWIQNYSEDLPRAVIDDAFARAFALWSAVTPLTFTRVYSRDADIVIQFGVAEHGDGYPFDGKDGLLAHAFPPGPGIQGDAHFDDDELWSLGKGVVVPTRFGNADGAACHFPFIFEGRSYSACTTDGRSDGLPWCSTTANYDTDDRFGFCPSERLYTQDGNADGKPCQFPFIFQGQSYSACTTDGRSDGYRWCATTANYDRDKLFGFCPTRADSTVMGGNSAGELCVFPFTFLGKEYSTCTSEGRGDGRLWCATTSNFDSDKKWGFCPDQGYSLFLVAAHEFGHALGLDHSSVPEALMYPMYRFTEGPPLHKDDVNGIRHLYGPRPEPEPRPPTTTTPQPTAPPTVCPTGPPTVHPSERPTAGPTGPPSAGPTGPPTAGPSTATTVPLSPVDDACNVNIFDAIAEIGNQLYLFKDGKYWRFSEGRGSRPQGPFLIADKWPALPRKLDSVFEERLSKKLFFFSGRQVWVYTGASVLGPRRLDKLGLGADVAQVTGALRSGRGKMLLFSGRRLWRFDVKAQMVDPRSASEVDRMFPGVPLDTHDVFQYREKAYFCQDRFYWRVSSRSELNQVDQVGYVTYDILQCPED
Method: (§2) Experiments were performed at 25° C. with the help of a Biacore 3000 instrument. The MMP-9 binding protein (M0166F10) and the M0237-D02 antibody were coated to a CM5 chip either via standard amine coupling or using an anti-Fc antibody surface. Then either the active, human MMP-9 catalytic domain (BIOMOL, SE-244), the human pro-MMP-9 (R&D, 911-MP), the human TIMP-1 (R&D, 970-TM) or a h-MMP-9/h-TIMP-1 complex were flowed over the antibody surfaces, and binding was recorded.

human TIMP-1 = molecular target: T2, human TIMP-1 (Homo sapiens, UniProt P01033); test: Biacore 3000 binding to antibody-coated CM5 chip; details: Direct capture; 25° C.
T2 construct: purchased R&D Systems 970-TM
T2 sequence (P01033 24-207): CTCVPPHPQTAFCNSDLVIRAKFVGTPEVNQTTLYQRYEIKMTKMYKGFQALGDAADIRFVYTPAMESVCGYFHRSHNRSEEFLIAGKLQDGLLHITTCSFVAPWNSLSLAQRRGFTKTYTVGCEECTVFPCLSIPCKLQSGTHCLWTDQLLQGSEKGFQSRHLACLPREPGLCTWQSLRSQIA
Method: as §2

[1] = molecular target: T3, Human MMP-9 catalytic domain (Homo sapiens, UniProt P14780); test: Biacore 3000 binding to antibody-coated CM5 chip; details: 25° C.
T3 construct: Human MMP-9 catalytic domain (BIOMOL, SE-244); purchased BIOMOL SE-244
T3 sequence (P14780 107-444 limits assumed): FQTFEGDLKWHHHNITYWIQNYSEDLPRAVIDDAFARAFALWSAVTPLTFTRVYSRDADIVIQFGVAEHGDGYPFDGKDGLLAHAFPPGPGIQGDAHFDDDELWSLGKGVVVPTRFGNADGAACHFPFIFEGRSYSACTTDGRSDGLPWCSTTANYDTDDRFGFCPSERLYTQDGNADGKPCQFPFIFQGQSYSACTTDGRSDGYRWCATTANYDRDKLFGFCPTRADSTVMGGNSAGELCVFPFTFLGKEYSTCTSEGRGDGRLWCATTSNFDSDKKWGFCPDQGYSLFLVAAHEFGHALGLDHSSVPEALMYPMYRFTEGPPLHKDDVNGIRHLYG
Method: as §2

[2] = molecular target: T3, Human MMP-9 catalytic domain; test: Ki measurement and inhibition model, fluorogenic substrate Mca-KPLGL-Dap(Dnp)-AR-NH2; format: biochemical; details: fluorogenic peptide substrates
Method: (§3) This example characterized the interaction of the M0237-D02 hIgG1 with the human and mouse MMP-9. The Ki was measured and the inhibition mechanism was determined
(§4) Materials: • Substrate: Mca-KPLGL-Dap(Dnp)-AR-NH2 (M-2350) from BACHEM (521575). A 10 mM stock solution was prepared in DMSO. • Enzymes: • Human MMP-9 catalytic domain (BIOMOL, SE-244). Enzyme concentration was measured by titration with TIMP-1 (2522-104) • Mouse MMP-9 (R&D, 909-MM), APMA-activated. • M0237-D02 hIgG1: 2517-014. Dialysed against TCN. • TCNB: 50 mM Tris/HCl, 10 mM CaCl2, 150 mM NaC, […], pH 7.5. • -96-well black plates from Perkin Elmer (6005270) • Spectramax M2e to measure fluorescence emission of the substrate upon hydrolysis (temperature control set at 30° C.; λexc=328 nm and λem=393 nm)
(§5) The enzyme (final concentration=0.23 and 0.17 nM for the human and mouse MMP-9, respectively) was preincubated with various concentrations (0-50 nM) of M0237-D02 for 1 h at 30° C. The substrate was then added to a final concentration ranging from 5 to 40 μM and initial rates were recorded.
(§6) Each data point was measured in triplicate, and initial rates were averaged.
(§7) Averaged initial rates were plotted against the M0237-D02 concentration for each substrate concentration, and IC50's were calculated using the following equation: […]
(§8) The IC50 values were then plotted against the substrate concentration.

Mouse MMP-9 = molecular target: T4, Mouse MMP-9 (Mus musculus, UniProt P41245); test: as above; format: biochemical; details: fluorogenic peptide substrates
T4 construct: purchased R&D Systems 909-MM (909-MM-010)
T4 sequence (P41245 108-730): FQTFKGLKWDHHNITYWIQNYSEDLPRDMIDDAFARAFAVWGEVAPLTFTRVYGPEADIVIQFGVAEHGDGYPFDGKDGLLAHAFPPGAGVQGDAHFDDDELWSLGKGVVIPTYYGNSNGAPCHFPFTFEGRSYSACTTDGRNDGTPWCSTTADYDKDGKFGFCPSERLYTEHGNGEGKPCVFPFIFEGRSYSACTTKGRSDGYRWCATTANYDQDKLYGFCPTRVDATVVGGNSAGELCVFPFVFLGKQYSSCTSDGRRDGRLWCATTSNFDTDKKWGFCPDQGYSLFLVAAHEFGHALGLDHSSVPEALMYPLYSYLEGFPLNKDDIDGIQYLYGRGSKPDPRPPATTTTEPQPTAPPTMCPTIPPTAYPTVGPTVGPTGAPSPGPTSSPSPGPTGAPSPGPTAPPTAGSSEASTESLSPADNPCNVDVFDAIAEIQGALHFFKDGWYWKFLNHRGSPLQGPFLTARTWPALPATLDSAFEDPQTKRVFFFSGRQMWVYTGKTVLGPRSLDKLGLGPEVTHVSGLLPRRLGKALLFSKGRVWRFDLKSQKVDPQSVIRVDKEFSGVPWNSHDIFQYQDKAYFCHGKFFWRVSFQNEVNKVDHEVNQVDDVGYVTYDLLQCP
Method: as §3, §4, §5, §6, §7, §8

[3] = test system: carrageenan-stimulated mouse air pouch; test: Carrageenan-stimulated mouse air pouch, inflammatory cell infiltration; format: in vivo; details: FIG. 2
Description: The purpose of the following experiments were to determine the effect of 539A-M0237-D02 on inflammation and specifically on inflammatory cell infiltration into the carrageenan-stimulated mouse air pouch and on the arthritic index in collagen-induced arthritis (CIA) mice.
For the carrageenan-stimulated mouse air pouch model, subcutaneous injection of air into the hind flank or back of mice produces an air pouch in a week, the interior surface of which contains both fibroblast-like and macrophage-like cells. Inflammatory stimulation of the pouch results in leukocyte recruitment to the pouch and release of mediators (cytokines) into the exudate. Preventing inflammatory cell infiltration into the air pouch may translate into preventing inflammation of the synovium in rheumatoid arthritis.
The effect of 539A-M0237-D02 on inflammatory cell infiltration was compared to inflammatory cell infiltration indomethacin and a control (PBS). In addition, inflammatory cell recruitment was compared to an unstimulated mouse.

binding of Pro-huMMP-9 (human pro-MMP-9; listed as 539A-M0237D02): No
binding of Pro-huMMP-9 (human pro-MMP-9; listed as M237-D02): observed neither
binding of huTIMP-1 (human TIMP-1): No
binding of Cat-huMMP-9 ([1]; Direct capture (amine coupling)): No
binding of Cat-huMMP-9 ([1]; Fc capture (anti-Fc antibody surface)): could be observed
binding of Cat-huMMP-9 ([1]; Fc capture (anti-Fc antibody surface), listed as 539A-M0237D02): Yes
inhibition model [2]: non competitive inhibitor
inhibition model (Mouse MMP-9): non competitive inhibitor
B1: M0237-D02: MMP-9/-2 dual reactive antibody inhibitor (parental); sFab and hIgG1 (antibody, V domains shown)
VH: EVQLLESGGGLVQPGGSLRLSCAASGFTFSQYPMWWVRQAPGKGLEWVSYIVPSGGRTYYADSVKGRFTISRDNSKNTLYLQMNSLRAEDTAVYYCAKDRAYGDYVGWNGFDYWGQGTLVTVSS
VL: DIQMTQSPATLSLSPGERATLSCRASQSISSFLAWYQQKPGQAPRLLIYDASYRATGIPARFSGSGSGTDFTLTISSLEPEDYAVYYCQQRGNWPITFGQGTRLEIK
inhibition of gelatinolytic activity (Colo205 tumor sections): complete inhibition
inhibition of gelatinolytic activity (MCF-7 tumor sections): complete inhibition
lymphocyte infiltration [3]: significantly decreased
neutrophil infiltration [3]: significantly decreased
total white blood cell infiltration [3]: significantly decreased
